In article PMC7057269 (Journal of Molecular Biology, 2020):
Numbering of substitutions follows the chain as printed. * marks the point of attachment. Biotin = O=C1N[C@H]2[C@H](CS[C@H]2CCCCC(=O)*)N1; linker = not defined here

Tests used:
Fab397 = assay: Isothermal titration calorimetry (ITC), NANP repeat peptides to Fab397; format: binding, human; settings: for TΔS / ΔH / ΔS / Kd / No. of sites (N-value): ITC, arithmetic mean ± SD, n = 4; for TΔS / ΔH / ΔS: Fab397, 25 °C; for Kd / No. of sites (N-value): peptide in syringe, 8.9 μM Fab397 in cell, DPBS, 25 °C, single-site model
Experimental: Titrations were performed on a MicroCal Auto-iTC200 (GE Healthcare, Chicago, IL). Prior to the experiments, wild-type Fab397 was extensively dialyzed against Dulbecco's PBS (Thermo Fisher, Waltham, MA). […] The Fab and peptide concentrations were determined by UV absorbance at 280 nm and 205 nm. Molar extinction coefficients for the peptides at 205 nm were estimated using a previously published method. The titrations were all performed with peptides in the syringe and antibodies in the cell and consisted of 16 injections of 2.45 μL peptide at a rate of 0.5 μl/s […], with injection duration of 4.9 s, injection interval of 180 s, and reference power of 5 μCal. Experiments were conducted in quadruplet (N = 4) at 25 °C. Fitting of the integrated titration peaks was performed with Origin 7.0 software using a single-site binding model. The first data point was excluded from the fit as commonly done.
Data for sporozoite ELISA assay (N = 2) were fitted and plotted using GraphPad Prism, version 7.0. For mouse liver burden assay (N = 5 mice), data were compared for significance using a Mann–Whitney U test with p < 0.05 indicated a statistically significant difference. […] All statistical parameters and graphs for the mouse liver burden assay were calculated and plotted using R with the Hmisc and ggplot2 packages. Each ITC experiment was performed with four replicates (N = 4), and the data were reported as the arithmetic mean ± SD.

Fab317 = biological target: Fab317; design: method as in PMID 29138320; settings: Fab317 with NPNA3; cited from earlier work
[1] = biological target: T1, biotinylated NPNA3 peptide (Biotin-linker-NPNANPNANPNA-NH2) (Plasmodium falciparum, synthetic CSP …, reading uncertain); assay: BLI; settings: both partners purified
T1 construct: not shown: biotin, N-terminal, kept
T1 chain: {Biotin-linker}-NPNANPNANPNA-NH2

[2] = biological target: T2, NPNA8 peptide (Ac-NPNANPNANPNANPNANPNANPNANPNANPNA-NH2) (Plasmodium falciparum, synthetic CSP …); assay: negative-stain electron microscopy; settings: both partners purified
T2 construct: also called (NANP)8
T2 chain: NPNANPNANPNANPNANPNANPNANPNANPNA

[3] = biological target: T2, NPNA8 peptide …; assay: ITC; settings: both partners purified
[4] = biological target: T3, NPNA4 peptide (Ac-NPNANPNANPNANPNA-NH2) (Plasmodium falciparum, synthetic CSP …); assay: ITC; settings: both partners purified
T3 construct: also called (NANP)4
T3 chain: Ac-NPNANPNANPNANPNA-NH2

CC(=O)N[C@@H](CC(N)=O)C(=O)N1CCC[C@H]1C(=O)N[C@@H](CC(N)=O)C(=O)N[C@@H](C)C(=O)N[C@@H](CC(N)=O)C(=O)N1CCC[C@H]1C(=O)N[C@@H](CC(N)=O)C(=O)N[C@@H](C)C(=O)N[C@@H](CC(N)=O)C(=O)N1CCC[C@H]1C(=O)N[C@@H](CC(N)=O)C(=O)N[C@@H](C)C(=O)N[C@@H](CC(N)=O)C(=O)N1CCC[C@H]1C(=O)N[C@@H](CC(N)=O)C(=O)N[C@@H](C)C(=O)N[C@@H](CC(N)=O)C(=O)N1CCC[C@H]1C(=O)N[C@@H](CC(N)=O)C(=O)N[C@@H](C)C(=O)N[C@@H](CC(N)=O)C(=O)N1CCC[C@H]1C(=O)N[C@@H](CC(N)=O)C(=O)N[C@@H](C)C(=O)N[C@@H](CC(N)=O)C(=O)N1CCC[C@H]1C(=O)N[C@@H](CC(N)=O)C(=O)N[C@@H](C)C(=O)N[C@@H](CC(N)=O)C(=O)N1CCC[C@H]1C(=O)N[C@@H](CC(N)=O)C(=O)N[C@@H](C)C(N)=O [NPNA8]
binding stoichiometry inferred from N-value (Fab397; ITC with Fab397, peptide:Fab ratio, or number of Fabs per peptide as worded): two Fabs bind per peptide | TΔS (Fab397): -30024 ± 179 cal/mol | ΔH (Fab397): -40090 ± 143 cal/mol | ΔS (Fab397): −100.7 ± 0.6 cal^−1·mol^−1·K^−1 | Kd (Fab397): 41 ± 3 nM | No. of sites (N-value) (Fab397): 0.56 ± 0.01

CC(=O)N[C@@H](CC(N)=O)C(=O)N1CCC[C@H]1C(=O)N[C@@H](CC(N)=O)C(=O)N[C@@H](C)C(=O)N[C@@H](CC(N)=O)C(=O)N1CCC[C@H]1C(=O)N[C@@H](CC(N)=O)C(=O)N[C@@H](C)C(N)=O [NPNA2]
TΔS (Fab397): -5859 ± 593 cal/mol | ΔH (Fab397): -13303 ± 556 cal/mol | ΔS (Fab397): −19.7 ± 2.0 cal^−1·mol^−1·K^−1 | No. of sites (N-value) (Fab397): 1.25 ± 0.02

NPNA3: NPNA3 peptide, bound by Fab317 in ref 29 ({Biotin-linker}-NPNANPNANPNA-NH2; reading uncertain; also: linker not given here)
Kd (Fab317): 78 ± 16 nM

CC(=O)N[C@@H](CC(N)=O)C(=O)N1CCC[C@H]1C(=O)N[C@@H](CC(N)=O)C(=O)N[C@@H](C)C(=O)N[C@@H](CC(N)=O)C(=O)N1CCC[C@H]1C(=O)N[C@@H](CC(N)=O)C(=O)N[C@@H](C)C(=O)N[C@@H](CC(N)=O)C(=O)N1CCC[C@H]1C(=O)N[C@@H](CC(N)=O)C(=O)N[C@@H](C)C(=O)N[C@@H](CC(N)=O)C(=O)N1CCC[C@H]1C(=O)N[C@@H](CC(N)=O)C(=O)N[C@@H](C)C(N)=O [NPNA4]
TΔS (Fab397): -9884 ± 147 cal/mol | ΔH (Fab397): -19915 ± 102 cal/mol | ΔS (Fab397): −33.2 ± 0.5 cal^−1·mol^−1·K^−1 | Kd (Fab397): 44 ± 3 nM | No. of sites (N-value) (Fab397): 1.14 ± 0.01

B1: Fab311 wild type (Fab, V domains shown)
VH: QVQLVESGGGVVPPGRSLRLSCATSGFTFSNYGMHWVRQAPGKGLEWVAIIWYDGSRNFYAASVEGRFTISRDNSKNTLYLQMNSLRVEDTAVYYCARAAYYDTSGYGDYWGQGTLVTVSS
VL: QSVLTQPPSVSGAPGQTVTISCTGGSSNIGAGYDVHWYQQLPGTAPKLLIYGNINRPSGVPDRFSGSKSGTSASLAITGLQAEDEADYYCQSYDRRLSGSWVFGGGTKLTVL
binding result [1]: binds

B2: Fab311 HW52A (Fab, V domains shown)
VH: B1 VH with W52A
VL: B1 VL
other [1]: 26%

B3: Fab317 wild type (Fab, V domains shown)
VH: QMQLVESGGGVVQPGRSLRLSCTASGFTFSTYAMHWVRQSPGQGLQWVAVISYHSTNKYYEDSVRGRFTISRDNSKNTLYLQMNSLRAEDTAVYYCARDGYSSSFFDFWGQGTLVTVSS
VL: DIQMTQSPSTLSASVGDRVAITCRASQSISRWLAWYQQQPGKAPKLLMSGASVLESGVPSRFSGSGSGTEFTLTISSLQPDDFATYYCQHYNSYFVTFGQGTKVEIK
other [1]: 100%

B4: Fab317 LW32A (Fab, V domains shown)
VH: B3 VH
VL: B3 VL with W32A
other [1]: 20%

B5: Fab397 wild type (Fab, V domains shown)
VH: EVQLVKSGGGLVKPGGSLRLSCAVSGFTFTDAWMSWVRQAPGKGPEWVGRIKSNPDGGTTDYAAPVRGRFTISRDDSKNTLYLQMNNLKTEDTAVYYCITDRDFYRSGGSWGQGTLVTV
VL: DIVMTQSPLSLPVTPGEPASISCRSRQSLLYSNGDNYLDWYLQKPGQSPQLLIYLGSNRAPGVPDRFSGSGSGTDFTLKISRVEAEDVGVYYCMQTLQTPHTFGQGTKLEIK
stoichiometry N [2]: 2 | Kd [3]: 41 nM | dH [3]: -40100 cal/mol | stoichiometry N [3]: 0.56 | Kd [4]: 44 nM | dH [4]: -19900 cal/mol | stoichiometry N [4]: 1.14 | binding result [1]: binds

B6: Fab397 HD95A (Fab, V domains shown)
VH: B5 VH with D101A
VL: B5 VL
binding result [1]: no binding (tested: 2000 nM)

B7: Fab397 HR96A (Fab, V domains shown)
VH: B5 VH with R102A
VL: B5 VL
other [1]: 77%

B8: Fab397 LD30A (Fab, V domains shown)
VH: B5 VH
VL: B5 VL with D35A
other [1]: 66%

B9: Fab397 LY32A (Fab, V domains shown)
VH: B5 VH
VL: B5 VL with Y37A
binding result [1]: no binding (tested: 2000 nM)

B10: Fab397 HW33A (Fab, V domains shown)
VH: B5 VH with W33A
VL: B5 VL
binding result [1]: no binding (tested: 2000 nM)
